# In PMC5397363 (Molecular microbiology, 2017):
# Test system: fluorogenic substrate
# Assay type: biochemical, Staphylococcus aureus
# Settings: 2.0 μM fluorogenic substrate; for measureable activity of mutant enzyme: enzyme 21.38 nM (dimer), n ≥ 3
molecule,measurement,setting,value
"G21A (protein, left off: His6, N-terminal, cleaved | SUMO, N-terminal, cleaved) MITVDITVNDEGKVTDVIMDAHADHGEYGHDIVCAGASAVLFGSVNAIIGLTSERPDINYDDNGGHFHIRSVDTNNDEAQLILQTMLVSLQTIEEEYNENIRLNYK",measureable activity of mutant enzyme,,none
"S38A (protein, left off: His6, N-terminal, cleaved | SUMO, N-terminal, cleaved) MITVDITVNDEGKVTDVIMDGHADHGEYGHDIVCAGAAAVLFGSVNAIIGLTSERPDINYDDNGGHFHIRSVDTNNDEAQLILQTMLVSLQTIEEEYNENIRLNYK",measureable activity of mutant enzyme,,none
same,activity relative to the wild-type enzyme,enzyme 213.8 nM,2.1 ± 0.2%
"D31A (protein, left off: His6, N-terminal, cleaved | SUMO, N-terminal, cleaved) MITVDITVNDEGKVTDVIMDGHADHGEYGHAIVCAGASAVLFGSVNAIIGLTSERPDINYDDNGGHFHIRSVDTNNDEAQLILQTMLVSLQTIEEEYNENIRLNYK",measureable activity of mutant enzyme,,none
"H22A (protein, left off: His6, N-terminal, cleaved | SUMO, N-terminal, cleaved) MITVDITVNDEGKVTDVIMDGAADHGEYGHDIVCAGASAVLFGSVNAIIGLTSERPDINYDDNGGHFHIRSVDTNNDEAQLILQTMLVSLQTIEEEYNENIRLNYK",measureable activity of mutant enzyme,,none
